From patent US20240263208A1, “CYTOCHROME P450 ENZYME” (HYPHA DISCOVERY LTD., priority 2021, published 2024)

Assays:
Format in all cases: biochemical
[1] = Oxidase activity testing against sclareol; settings: substrate Sclareol; Batch 2; UPLC-MS UV or MS peak areas
Procedure: (§1) Lyophilised material of recombinant P450, ferredoxin and ferredoxin reductase proteins was made as described in Example 4 and reconstituted in high purity water to the original volume. Biocatalysis was performed with shaking incubation at 27° C. in the following conditions: 100 mM potassium phosphate pH 8.0, 5 mM MgCl2 (both present in the reconstituted enzyme preparation) and 0.1 mg/ml substrate compound such as ambroxide (Sigma-Aldrich, UK), carbamazepine (Sigma-Aldrich, UK), diclofenac (Sigma-Aldrich, UK), tivantinib (MedChemtronica, Sweden), clarithromycin (Tokyo Chemical Industry, Japan), sclareol (Sigma-Aldrich, UK), celecoxib (LC Laboratories, USA), buparvaquone (Sigma-Aldrich, UK), BIRB796 (MedChemExpress, USA), vanoxerine (CiVentiChem, USA), valsartan (Tokyo Chemical Industry, Japan), ruxolitinib (LC Laboratories, USA), perindopril (Selleckchem, USA), solifenacin (Key Organics, UK), 7-ethoxycoumarin (Tokyo Chemical Industry, Japan), tofacitinib (LC Laboratories, USA), ebastine (Key Organics, UK), efavirenz (Key Organics, UK), propanalol (Sigma-Aldrich, UK) and tolbutamide (Key Organics, UK).
(§2) Concentrations of P450, ferredoxin and ferredoxin reductase were as extracted (Example 4). Reactions were initiated by addition of 10× stock of cofactor mixture (50 mM G6P, 10 mM NADP+, 10 UN/ml G6PDH) to provide a final volume of e.g., 10 μl to 90 μl for 100 μl total reaction volumes. After 16-20 hours, reactions were extracted with an equal volume of acetonitrile, centrifuged to remove precipitated proteins and conversion assessed by UPLC-MS analysis.
(§3) UPLC Data were Obtained as Follows: • Column: Acquity UPLC BEH Shield RP18 1.7 μm 2.1 mm i.d. 50 mm length • Solvents: H2O, B: Acetonitrile, both with 0.1% Formic acid • Flow rate: 1.0 ml/min • Detector: Waters Acquity UPLC PDA (UV-Vis detection) and Waters Acquity UPLC QDA (MS)
(§4) Representative results for the % conversions of various substrates to products by enzymes with mutations at position T109 or L198 and double mutants at T109 and 1129/L198 are shown in Table 4 below.

[2] = Oxidase activity testing against celecoxib; settings: substrate Celecoxib; Batch 2
Procedure: as §1, §2, §3, §4

[3] = Oxidase activity testing against buparvaquone; settings: substrate Buparvaquone; Batch 2
Procedure: as §1, §2, §3, §4

[4] = Oxidase activity testing against BIRB796; settings: substrate BIRB796; Batch 2
Procedure: as §1, §2, §3, §4

[5] = Oxidase activity testing against vanoxerine; settings: substrate Vanoxerine; Batch 2
Procedure: as §1, §2, §3, §4

[6] = Oxidase activity testing against valsartan; settings: substrate Valsartan; Batch 2
Procedure: as §1, §2, §3, §4

[7] = Oxidase activity testing against ruxolitinib; settings: substrate Ruxolitinib; Batch 2
Procedure: as §1, §2, §3, §4

[8] = Oxidase activity testing against perindopril; settings: substrate Perindopril; Batch 2
Procedure: as §1, §2, §3, §4

[9] = Oxidase activity testing against solifenacin; settings: substrate Solifenacin; Batch 2
Procedure: as §1, §2, §3, §4

[10] = Oxidase activity testing against 7-ethoxycoumarin; settings: substrate 7-ethoxycoumarin; Batch 2
Procedure: as §1, §2, §3, §4

[11] = Oxidase activity testing against tofacitinib; settings: substrate Tofacitinib; Batch 2
Procedure: as §1, §2, §3, §4

[12] = Oxidase activity testing against ebastine; settings: substrate Ebastine; Batch 2
Procedure: as §1, §2, §3, §4

[13] = Oxidase activity testing against efavirenz; settings: substrate Efavirenz; Batch 2
Procedure: as §1, §2, §3, §4

[14] = Oxidase activity testing against clarithromycin; settings: for new product at 3.12 minutes (3″-O-demethylclarithromycin) from clarithromycin: chromatographic analysis, FIGS. 5 and 6; for Average % conversion: substrate Clarithromycin, Batch 2
Procedure: as §1, §2, §3, §4

[15] = Oxidase activity testing against propanalol; settings: substrate Propanalol; Batch 2
Procedure: as §1, §2, §3, §4

[16] = Oxidase activity testing against tolbutamide; settings: substrate Tolbutamide; Batch 2
Procedure: as §1, §2, §3, §4

Row | new product at 3.12 minutes (3″-O-demethylclarithromycin) from clarithromycin [14] | Molecule | Average % conversion [1] | Average % conversion [2] | Average % conversion [3] | Average % conversion [4] | Average % conversion [5] | Average % conversion [6] | Average % conversion [7] | Average % conversion [8] | Average % conversion [9] | Average % conversion [10] | Average % conversion [11] | Average % conversion [12] | Average % conversion [13] | Average % conversion [14] | Average % conversion [15] | Average % conversion [16]
1 | not observed | M15: P450SeuC10 with L198T mutation, SEQ ID NO: 34 (protein, SeuC10M15) MKIGTTHLTRLRGLSMTELTDITGPAAQAETVAFPQDRTCPYHPPTGYDPLRDGRPLSRVTLYDGREVWLVTAQATARALLADPRLSTDRRRDGFPVPTPRFAAGRDRTLALLGLDDPEHHRQRRLLIPSFTLKRATAQRPWIQRIVDELLDAMIARGPVADLVSAFALPVPSMVICELLGVPYADHEFFEEQSRRLTRGPTGADTTDARDRLEAYLGDLIDAKAKEAEPGDGILDDLVHNRLRAGELDRSVLVSLAVILLVAGHETTANMISLGTYTLLQHPERLAELRADPSLLPAVVEELLRMLSIAEGLQRLALEDIEIDGITIRAGEGVLFSTSVINRDTAVYEDPDDLDFHRADRHHVAFGFGIHQCLGQNLARAELEIALGSLFTRLPGLRLAAPAEEIPFKPGDTVQGMLELPVTW | 61% | 7.2% | 0% | 34.4% | 41% | 20.9% | 100% | 35.4% | 6% | 14.7% | 32.3% | 0.5% | 4.3% | 0% | 0% | 28.3%
2 | not observed | M31: P450SeuC10 with T109F and I259A double mutations, SEQ ID NO: 128 (protein, SeuC10M31) MKIGTTHLTRLRGLSMTELTDITGPAAQAETVAFPQDRTCPYHPPTGYDPLRDGRPLSRVTLYDGREVWLVTAQATARALLADPRLSTDRRRDGFPVPTPRFAAGRDRFLALLGLDDPEHHRQRRLLIPSFTLKRATAQRPWIQRIVDELLDAMIARGPVADLVSAFALPVPSMVICELLGVPYADHEFFEEQSRRLLRGPTGADTTDARDRLEAYLGDLIDAKAKEAEPGDGILDDLVHNRLRAGELDRSVLVSLAVALLVAGHETTANMISLGTYTLLQHPERLAELRADPSLLPAVVEELLRMLSIAEGLQRLALEDIEIDGITIRAGEGVLFSTSVINRDTAVYEDPDDLDFHRADRHHVAFGFGIHQCLGQNLARAELEIALGSLFTRLPGLRLAAPAEEIPFKPGDTVQGMLELPVTW | 1.3% | 0.4% | 0% | 0% | 11.4% | 0.6% | 46.9% | 14.6% | 2.2% | 2.9% | 8.2% | 0% | 4.1% | 0.7% | 0% | 2.9%
